Reference: US20230265151A1, “GIP/GLP1 CO-AGONIST COMPOUNDS” (priority 2020, published 2023)
Residue numbers refer to the chain shown, from its start.

T1: human GIP receptor (human, UniProt P48546 22-466)
T1 sequence (looked up): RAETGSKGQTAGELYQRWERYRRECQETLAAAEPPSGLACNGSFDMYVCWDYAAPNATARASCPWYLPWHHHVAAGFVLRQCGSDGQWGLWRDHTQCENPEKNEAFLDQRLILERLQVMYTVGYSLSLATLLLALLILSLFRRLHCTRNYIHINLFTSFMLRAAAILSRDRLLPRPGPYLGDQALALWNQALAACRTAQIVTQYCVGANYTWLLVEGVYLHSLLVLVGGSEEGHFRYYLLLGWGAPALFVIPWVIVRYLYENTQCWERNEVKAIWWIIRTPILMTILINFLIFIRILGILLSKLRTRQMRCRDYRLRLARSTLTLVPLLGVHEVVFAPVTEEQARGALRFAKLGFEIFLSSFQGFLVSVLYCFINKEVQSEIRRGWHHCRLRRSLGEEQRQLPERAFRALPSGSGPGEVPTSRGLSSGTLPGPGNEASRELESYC

T2: human GIP receptor (human, UniProt P48546 22-466)
T2 construct: whole, on cells; also called hGIPR; human glucose-dependent insulinotropic polypeptide receptor
T2 sequence (looked up): T1 sequence (looked up)

B1: Example 221 (peptide)
peptide: YXEGTXTSDXSIXLDXKAQXEFIXXLIEGGPSSGAPPPSK
modifications: Y-Aib-EGT-αMeF(2F)-TSD-4Pal-SI-αMeL-LD-Orn-K((2-[2-(2-Amino-ethoxy)-ethoxy]-acetyl)2-CO-(CH2)12-CO2H)AQ-Aib-EFI-(D-Glu)-αMeY-LIEGGPSSGAPPPSK((2-[2-(2-Amino-ethoxy)-ethoxy]-acetyl)2-CO-(CH2)12-CO2H)-NH2
B2: Example 251 (peptide)
peptide: B1 peptide
modifications: Y-Aib-EGT-αMeF(2F)-TSD-2Nal-SI-αMeL-LD-Orn-K((2-[2-(2-Amino-ethoxy)-ethoxy]-acetyl)2-(γ-Glu)-CO-(CH2)12-CO2H)AQ-Aib-EFI-(D-Glu)-αMeY-LIEGGPSSGAPPPSK((2-[2-(2-Amino-ethoxy)-ethoxyl-acetyl)2-(γ-Glu)-CO-(CH2)12-CO2H)-NH2
B3: Example 225 (peptide)
peptide: B1 peptide
modifications: Y-Aib-EGT-αMeF(2F)-TSD-4Pal-SI-αMeL-LD-Orn-K((2-[2-(2-Amino-ethoxy)-ethoxy]-acetyl)3-(γ-Glu)-CO-(CH2)12-CO2H)AQ-Aib-EFI-(D-Glu)-αMeY-LIEGGPSSGAPPPSK((2-[2-(2-Amino-ethoxy)-ethoxy]-acetyl)3-(γ-Glu)-CO-(CH2)12-CO2H)-NH2
B4: Example 228 (peptide)
peptide: B1 peptide with K17I, E21K
modifications: Y-Aib-EGT-αMeF(2F)-TSD-4Pal-SI-αMeL-LD-Orn-IAQ-Aib-K((2-[2-(2-Amino-ethoxy)-ethoxy]-acetyl)3-(γ-Glu)-CO-(CH2)12-CO2H)FI-(D-Glu)-αMeY-LIEGGPSSGAPPPSK((2-[2-(2-Amino-ethoxy)-ethoxy]-acetyl)3-(γ-Glu)-CO-(CH2)12-CO2H)-NH2
B5: Y-Aib-EGT-αMeF(2F)-TSD-4Pal-SI-αMeL-LD-Orn-K((2-[2-(2-Amino-ethoxy)-ethoxy]-acetyl)2-(γ-Glu)-CO-(CH2)14-CH3)AQ-Aib-EFI-(D-Glu)-αMeY-LIEGGPSSGAPPPSK((2-[2-(2-Ami … (peptide)
peptide: B1 peptide
modifications: Aib2, αMeF(2F)6, 4Pal10, αMeL13, Orn16, K17(Z1), Aib20, D-Glu24, αMeY25, K40(Z1), C-term NH2; Z1=AEEA2-(γ-Glu)-CO-(CH2)14-CH3
B6: Example 224 (peptide)
peptide: YXEGTXTSDXSIXLDXKAQXEFIXXLIKGGPSSGAPPPS
modifications: Y-Aib-EGT-αMeF(2F)-TSD-4Pal-SI-αMeL-LD-Orn-K((2-[2-(2-Amino-ethoxy)-ethoxy]-acetyl)3-(γ-Glu)-CO-(CH2)12-CO2H)AQ-Aib-EFI-(D-Glu)-αMeY-LIK((2-[2-(2-Amino-ethoxy)-ethoxy]-acetyl)3-(γ-Glu)-CO-(CH2)12-CO2H)GGPSSGAPPPS-NH2
B7: Y-Aib-EGT-αMeF(2F)-TSD-4Pal-SI-αMeL-LD-Orn-K((2-[2-(2-Amino-ethoxy)-ethoxy]-acetyl)-(γ-Glu)-CO-(CH2)10-CH3)AQ-Aib-EFI-(D-Glu)-αMeY-LIEGGK((2-[2-(2-Amino-ethoxy) … (peptide)
peptide: B6 peptide with K28E, P31K
modifications: Aib2, αMeF(2F)6, 4Pal10, αMeL13, Orn16, K17(Z1), Aib20, D-Glu24, αMeY25, K31(Z1), C-term NH2; Z1=AEEA-(γ-Glu)-CO-(CH2)10-CH3
B8: Example 250 (peptide)
peptide: B6 peptide
modifications: Y-Aib-EGT-αMeF(2F)-TSD-2Nal-SI-αMeL-LD-Orn-K((2-[2-(2-Amino-ethoxy)-ethoxy]-acetyl)2-(γ-Glu)-CO-(CH2)12-CO2H)AQ-Aib-EFI-(D-Glu)-αMeY-LIK((2-[2-(2-Amino-ethoxy)-ethoxy]-acetyl)2-(γ-Glu)-CO-(CH2)12-CO2H)GGPSSGAPPPS-NH2
B9: Y-Aib-EGT-αMeF(2F)-TSD-4Pal-SI-αMeL-LD-Orn-K((2-[2-(2-Amino-ethoxy)-ethoxy]-acetyl)-(γ-Glu)-(10-(4-carboxyphenoxy)decanoyl))AQ-Aib-EFI-(D-Glu)-αMeY-LIEGGK((2-[2 … (peptide)
peptide: B6 peptide with K28E, P31K
modifications: Aib2, αMeF(2F)6, 4Pal10, αMeL13, Orn16, K17(Z1), Aib20, D-Glu24, αMeY25, K31(Z1), C-term NH2; Z1=AEEA-(γ-Glu)-(10-(4-carboxyphenoxy)decanoyl)
B10: Y-Aib-EGT-αMeF(2F)-TSDK((2-[2-(2-Amino-ethoxy)-ethoxy]-acetyl)2-(γ-Glu)-CO-(CH2)14-CH3)SI-αMeL-LD-Orn-K((2-[2-(2-Amino-ethoxy)-ethoxy]-acetyl)2-(γ-Glu)-CO-(CH2) … (peptide)
peptide: B6 peptide with X10K, K28E
modifications: Aib2, αMeF(2F)6, K10(Z1), αMeL13, Orn16, K17(Z1), Aib20, D-Glu24, αMeY25, C-term NH2; Z1=AEEA2-(γ-Glu)-CO-(CH2)14-CH3
B11: Y-Aib-EGT-αMeF(2F)-TSD-4Pal-SI-αMeL-LD-Orn-K((2-[2-(2-Amino-ethoxy)-ethoxy]-acetyl)-(γ-Glu)-CO-(CH2)14-CH3)AQ-Aib-EFI-(D-Glu)-αMeY-LIEGGK((2-[2-(2-Amino-ethoxy) … (peptide)
peptide: B6 peptide with K28E, P31K
modifications: Aib2, αMeF(2F)6, 4Pal10, αMeL13, Orn16, K17(Z1), Aib20, D-Glu24, αMeY25, K31(Z1), C-term NH2; Z1=AEEA-(γ-Glu)-CO-(CH2)14-CH3
B12: Example 218 (peptide)
peptide: YXEGTXTSDXXIXLDXIAQXKFIKXLIEGGPSSGAPPPS
modifications: Y-Aib-EGT-αMeF(2F)-TSD-4Pal-Aib-I-αMeL-LD-Orn-IAQ-Aib-K((2-[2-(2-Amino-ethoxy)-ethoxy]-acetyl)2-(γ-Glu)-CO-(CH2)12-CO2H)FIK((2-[2-(2-Amino-ethoxy)-ethoxy]-acetyl)2-(γ-Glu)-CO-(CH2)12-CO2H)-αMeY-LIEGGPSSGAPPPS-NH2
B13: Y-Aib-EGT-αMeF(2F)-TSD-4Pal-Aib-I-αMeL-LD-Orn-QAQ-Aib-Orn-FIK((2-[2-(2-Amino-ethoxy)-ethoxy]-acetyl)-(γ-Glu)3-(10-(4-carboxyphenoxy)decanoyl))-αMeY-LIK((2-[2-(2 … (peptide)
peptide: B12 peptide with I17Q, K21X, E28K
modifications: Aib2, αMeF(2F)6, 4Pal10, Aib11, αMeL13, Orn16, Aib20, Orn21, K24(Z1), αMeY25, K28(Z1), C-term NH2; Z1=AEEA-(γ-Glu)3-(10-(4-carboxyphenoxy)decanoyl)
B14: Example 246 (peptide)
peptide: B12 peptide with K21E, E28K
modifications: Y-Aib-EGT-αMeF(2F)-TSD-4Pal-Aib-I-αMeL-LD-Orn-IAQ-Aib-EFIK((2-[2-(2-Amino-ethoxy)-ethoxy]-acetyl)2-(γ-Glu)-(10-(4-carboxyphenoxy)decanoyl))-αMeY-LIK((2-[2-(2-Amino-ethoxy)-ethoxy]-acetyl)2-(γ-Glu)-(10-(4-carboxyphenoxy)decanoyl))GGPSSGAPPPS-NH2
B15: Y-Aib-EGT-αMeF(2F)-TSD-4Pal-Aib-I-αMeL-LD-Orn-QAQ-Aib-4Pal-FIK((2-[2-(2-Amino-ethoxy)-ethoxy]-acetyl)2-(γ-Glu)-(10-(4-carboxyphenoxy)decanoyl))-αMeY-LIK((2-[2-( … (peptide)
peptide: B12 peptide with I17Q, K21X, E28K
modifications: Aib2, αMeF(2F)6, 4Pal10, Aib11, αMeL13, Orn16, Aib20, 4Pal21, K24(Z1), αMeY25, K28(Z1), C-term NH2; Z1=AEEA2-(γ-Glu)-(10-(4-carboxyphenoxy)decanoyl)

Columns and labels:
human GIP receptor [1] = molecular target: T1, human GIP receptor; assay: cell-based or functional assay
human GLP-1 receptor [2] = molecular target: human GLP-1 receptor (human, UniProt P43220 24-463); assay: cell-based or functional assay
human glucagon receptor [3] = molecular target: human glucagon receptor (human, UniProt P47871 26-477); assay: cell-based or functional assay
human GLP-1 receptor [4] = molecular target: T3, human GLP-1 receptor (human, UniProt P43220 24-463); assay: SPA competition vs [125I]-GLP-1, hGLP-1R membranes
T3 construct: whole, on cells; also called hGLP-1R; human glucagon-like peptide-1 receptor
How it was run: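 Kᵢ values are geometric means (SEM) over replicates run on separate days, derived from IC₅₀ of four-parameter curve fits. Buffer: HEPES 25 mM pH 7.4 with CaCl₂ 2.5 mM, MgCl₂ 1 mM, bacitracin 0.1%, TWEEN-20 0.003%, EDTA-free protease inhibitors.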

human GIP receptor [5] = molecular target: T2, human GIP receptor; assay: SPA competition vs [125I]-GIP, hGIPR membranes
human glucagon receptor [6] = molecular target: T4, human glucagon receptor (human, UniProt P47871 26-477); assay: SPA competition vs [125I]-Gcg, hGcgR membranes
T4 construct: whole, on cells; also called hGCGR; hGcgR
T4 sequence (P47871 26-477): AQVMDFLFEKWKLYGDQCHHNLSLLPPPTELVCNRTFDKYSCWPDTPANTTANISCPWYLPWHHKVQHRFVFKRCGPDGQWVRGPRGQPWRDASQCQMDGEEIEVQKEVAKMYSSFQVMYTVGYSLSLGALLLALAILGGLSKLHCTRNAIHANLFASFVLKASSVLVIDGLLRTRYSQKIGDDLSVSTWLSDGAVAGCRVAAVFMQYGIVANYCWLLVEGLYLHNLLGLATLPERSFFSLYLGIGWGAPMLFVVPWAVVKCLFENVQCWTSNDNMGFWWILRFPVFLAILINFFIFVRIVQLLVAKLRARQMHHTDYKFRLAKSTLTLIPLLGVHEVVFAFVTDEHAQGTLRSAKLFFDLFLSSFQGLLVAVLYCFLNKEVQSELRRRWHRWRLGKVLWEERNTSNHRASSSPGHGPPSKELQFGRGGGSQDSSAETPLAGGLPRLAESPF

Row | Binder | cAMP EC50 (1.0% HSA) (human GIP receptor [1]) | cAMP Emax (1.0% HSA) (human GIP receptor [1]) | cAMP EC50 (1.0% HSA) (human GLP-1 receptor [2]) | cAMP EC50 (1.0% HSA) (human glucagon receptor [3]) | cAMP Emax (1.0% HSA) (human GLP-1 receptor [2]) | Ki (human GLP-1 receptor [4]) | Ki (human GIP receptor [5]) | Ki (human glucagon receptor [6])
1 | B1 | 0.838 nM | 67.4% | 17.9 nM | > 9950 nM | – | – | – | –
2 | B2 | 14.3 nM | 71.2% | 51 nM | > 9950 nM | – | – | – | –
3 | B3 | 1.81 nM | 67.5% | 51.6 nM | > 9950 nM | – | – | – | –
4 | B4 | 3.37 nM | 83.3% | 42 nM | > 9950 nM | 119% | – | – | –
5 | B5 | – | – | – | – | – | 0.483 nM | 0.0293 nM | 0.283 nM
6 | B6 | 2.92 nM | – | 71 nM | > 9950 nM | – | – | – | –
7 | B7 | – | – | – | – | – | 0.286 nM | 0.036 nM | 17.6 nM
8 | B8 | 38.8 nM | – | 63 nM | > 9950 nM | – | – | – | –
9 | B9 | – | – | – | – | – | 0.638 nM | 0.0575 nM | 213 nM
10 | B10 | – | – | – | – | – | 0.412 nM | 0.0505 nM | 0.923 nM
11 | B11 | – | – | – | – | – | 0.691 nM | 0.0575 nM | 0.987 nM
12 | B12 | 3.27 nM | 95.9% | 36.6 nM | > 9950 nM | 121% | – | – | –
13 | B13 | – | – | – | – | – | 0.217 nM | 0.0714 nM | 73.3 nM
14 | B14 | 1.63 nM | – | 22.9 nM | > 9950 nM | – | – | – | –
15 | B15 | – | – | – | – | – | 0.25 nM | 0.0345 nM | 70.1 nM
